Measurements as given in patent publication US20130345401.

System: T1, human fibrinogen produced in a silkworm (recombinant fibrinogen extracted from cocoons of β42-3×α/γ106-2×IM transgenic silkworms)
T1 sequence 1: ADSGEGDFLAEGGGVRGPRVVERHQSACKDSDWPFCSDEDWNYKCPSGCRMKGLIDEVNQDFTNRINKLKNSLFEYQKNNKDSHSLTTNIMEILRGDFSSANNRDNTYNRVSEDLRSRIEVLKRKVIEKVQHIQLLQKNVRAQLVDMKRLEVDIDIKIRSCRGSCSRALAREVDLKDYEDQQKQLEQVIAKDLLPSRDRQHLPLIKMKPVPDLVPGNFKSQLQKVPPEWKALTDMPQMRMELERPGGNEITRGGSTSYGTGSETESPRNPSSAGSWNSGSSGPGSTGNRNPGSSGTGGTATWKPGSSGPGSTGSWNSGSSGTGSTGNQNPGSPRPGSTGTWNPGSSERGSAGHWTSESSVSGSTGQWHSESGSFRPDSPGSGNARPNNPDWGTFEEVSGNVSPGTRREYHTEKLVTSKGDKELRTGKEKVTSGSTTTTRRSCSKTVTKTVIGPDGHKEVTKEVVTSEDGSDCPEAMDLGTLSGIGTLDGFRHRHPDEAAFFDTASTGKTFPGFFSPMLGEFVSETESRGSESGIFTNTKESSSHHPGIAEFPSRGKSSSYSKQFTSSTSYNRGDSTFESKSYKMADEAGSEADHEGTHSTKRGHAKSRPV
T1 sequence 2: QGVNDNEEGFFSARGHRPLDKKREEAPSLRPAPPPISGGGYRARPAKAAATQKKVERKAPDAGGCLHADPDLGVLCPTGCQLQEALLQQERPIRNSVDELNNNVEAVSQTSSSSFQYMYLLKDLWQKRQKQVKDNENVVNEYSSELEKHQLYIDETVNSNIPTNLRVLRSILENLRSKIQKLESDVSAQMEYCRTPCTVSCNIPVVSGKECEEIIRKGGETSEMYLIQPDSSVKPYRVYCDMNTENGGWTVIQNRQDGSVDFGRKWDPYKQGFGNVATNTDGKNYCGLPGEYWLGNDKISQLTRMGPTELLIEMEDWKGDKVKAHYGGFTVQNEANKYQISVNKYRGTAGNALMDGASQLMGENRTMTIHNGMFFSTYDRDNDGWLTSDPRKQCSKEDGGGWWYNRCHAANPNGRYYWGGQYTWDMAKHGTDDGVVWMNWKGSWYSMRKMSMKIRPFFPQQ
T1 sequence 3: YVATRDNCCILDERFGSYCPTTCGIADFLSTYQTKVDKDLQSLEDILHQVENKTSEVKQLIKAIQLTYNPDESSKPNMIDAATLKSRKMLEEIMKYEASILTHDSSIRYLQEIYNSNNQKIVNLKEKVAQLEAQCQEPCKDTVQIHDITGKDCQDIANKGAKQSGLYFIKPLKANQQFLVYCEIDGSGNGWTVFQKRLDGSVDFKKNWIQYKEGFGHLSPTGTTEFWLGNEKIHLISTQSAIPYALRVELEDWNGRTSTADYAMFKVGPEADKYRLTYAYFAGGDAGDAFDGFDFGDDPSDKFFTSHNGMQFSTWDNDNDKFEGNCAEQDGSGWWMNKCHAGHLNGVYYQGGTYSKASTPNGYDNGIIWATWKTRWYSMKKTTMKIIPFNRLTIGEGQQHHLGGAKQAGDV

thrombin (Calbiochem)
coagulation (fibrin clot formation): viscosity of the liquid after incubation with 10 U/ml thrombin at 37° C. for 1 hour: viscosity of the liquid increased to an extent where, when the liquid was sucked into a pipette, the liquid hardly dropped from the tip of the pipette
